Results on 1 substance are retold here after US5854388A, “Angiotensin IV peptides and receptor” (Washington State University Research Foundation, priority 1994, dated 1998).

The target of series [1] is T1, AT4 receptor (Bos taurus, UniProt F1N1Q8).
T1 sequence (F1N1Q8 1-1022): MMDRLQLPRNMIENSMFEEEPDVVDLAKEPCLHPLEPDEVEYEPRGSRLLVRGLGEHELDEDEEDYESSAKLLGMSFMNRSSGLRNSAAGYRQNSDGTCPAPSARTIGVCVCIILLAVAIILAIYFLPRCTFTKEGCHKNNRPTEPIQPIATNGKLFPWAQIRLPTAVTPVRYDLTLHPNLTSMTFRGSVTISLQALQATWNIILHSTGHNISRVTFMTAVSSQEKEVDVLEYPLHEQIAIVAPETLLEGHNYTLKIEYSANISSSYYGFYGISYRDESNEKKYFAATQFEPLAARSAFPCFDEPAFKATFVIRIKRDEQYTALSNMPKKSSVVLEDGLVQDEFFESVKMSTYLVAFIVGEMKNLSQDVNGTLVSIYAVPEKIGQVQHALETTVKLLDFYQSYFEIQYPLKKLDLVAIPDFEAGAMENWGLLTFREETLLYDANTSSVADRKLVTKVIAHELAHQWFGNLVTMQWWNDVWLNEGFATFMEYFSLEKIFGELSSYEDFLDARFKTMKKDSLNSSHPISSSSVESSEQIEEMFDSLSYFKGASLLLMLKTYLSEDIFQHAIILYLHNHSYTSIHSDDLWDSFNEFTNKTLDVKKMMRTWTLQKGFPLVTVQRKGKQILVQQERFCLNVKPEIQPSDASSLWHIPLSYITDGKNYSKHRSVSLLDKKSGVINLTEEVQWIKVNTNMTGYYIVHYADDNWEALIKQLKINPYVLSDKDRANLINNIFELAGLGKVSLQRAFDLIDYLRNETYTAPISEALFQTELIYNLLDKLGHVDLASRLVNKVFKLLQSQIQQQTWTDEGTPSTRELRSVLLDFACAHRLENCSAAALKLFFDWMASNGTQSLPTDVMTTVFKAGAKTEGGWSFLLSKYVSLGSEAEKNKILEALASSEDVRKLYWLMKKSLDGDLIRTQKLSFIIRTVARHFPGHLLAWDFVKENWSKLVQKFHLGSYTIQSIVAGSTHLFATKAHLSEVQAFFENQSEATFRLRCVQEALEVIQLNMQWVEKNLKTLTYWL
Description: 125I-AIV binding and competition, coronary venular endothelial cell (CVEC) membranes. Particulars: competition of 0.5 nM 125I-AIV; read-out: Ki. More on the design: species or system bovine.

The conditions of series [2]: in vivo; cited from earlier work.
Series [3] addresses T2, AT4 receptor (Oryctolagus cuniculus, UniProt G1SFU4).
T2 sequence (G1SFU4 1-1025): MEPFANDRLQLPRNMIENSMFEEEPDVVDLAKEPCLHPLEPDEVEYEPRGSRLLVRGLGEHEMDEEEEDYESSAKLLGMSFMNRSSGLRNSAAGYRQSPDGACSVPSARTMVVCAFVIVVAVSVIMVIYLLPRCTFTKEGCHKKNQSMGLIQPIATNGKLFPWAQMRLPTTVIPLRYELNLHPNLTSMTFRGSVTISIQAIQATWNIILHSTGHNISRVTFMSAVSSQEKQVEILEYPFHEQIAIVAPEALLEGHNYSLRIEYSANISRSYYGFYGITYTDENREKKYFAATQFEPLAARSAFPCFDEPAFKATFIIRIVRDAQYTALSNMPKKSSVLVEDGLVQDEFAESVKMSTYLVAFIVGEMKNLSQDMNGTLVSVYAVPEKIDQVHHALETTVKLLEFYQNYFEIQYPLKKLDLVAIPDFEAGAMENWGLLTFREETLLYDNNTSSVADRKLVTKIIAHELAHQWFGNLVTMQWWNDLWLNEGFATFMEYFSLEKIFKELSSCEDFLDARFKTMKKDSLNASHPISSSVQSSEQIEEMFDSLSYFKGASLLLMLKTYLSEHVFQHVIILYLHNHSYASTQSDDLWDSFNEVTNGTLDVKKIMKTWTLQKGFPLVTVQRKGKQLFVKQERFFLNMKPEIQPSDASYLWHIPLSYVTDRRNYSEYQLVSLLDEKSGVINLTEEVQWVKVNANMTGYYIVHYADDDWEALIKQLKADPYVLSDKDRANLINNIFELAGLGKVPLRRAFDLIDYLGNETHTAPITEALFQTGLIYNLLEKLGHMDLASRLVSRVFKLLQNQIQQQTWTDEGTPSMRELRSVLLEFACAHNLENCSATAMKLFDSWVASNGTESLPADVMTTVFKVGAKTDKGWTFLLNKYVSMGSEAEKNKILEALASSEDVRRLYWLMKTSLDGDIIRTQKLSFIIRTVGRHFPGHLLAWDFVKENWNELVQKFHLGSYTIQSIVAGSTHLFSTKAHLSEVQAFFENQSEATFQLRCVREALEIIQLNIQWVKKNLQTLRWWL
In words: 125I-AIV binding and competition, rabbit heart P2 membranes. The conditions noted are these: competition of 0.5 nM 125I-AIV, 120 min, 37° C.

The conditions of series [4]: in vivo; cited from earlier work. This is another data set of the same source.

Broadly, the Ki is the equilibrium dissociation constant of an inhibitor or competing ligand from its target. In the case of “Asp1 Arg2 Val3 Tyr4 Ile5 His6 Pro7 Phe8 (DRVYIHPF) [AII]”, the Ki is 194 ± 44.5 nM in series [1] and greater than 1000 nM in series [3]. Besides, the half-lives in series [2] was 4.4 min. The “metabolized during transit through the kidney” value in series [4] is 72-76%.
